In patent US20120178124A1, “STEROL SIDE CHAIN-CLEAVING ENZYME PROTEIN AND USE THEREOF” (MITSUBISHI CHEMICAL CORPORATION, priority 2009, published 2012):

Key:
Type in all cases: biochemical
[1] = pH stability test of cell-free extract; settings: for Relative activity: 140 hr versus 0 hr, 6° C.; for Activity 0 hr: immediately after mixing, reaction 15° C., 4 hours, pH 7.5
Description: (§1) To 20 ml of the cell suspension prepared in (2) above, 680 μl of X10 Bug Buster (Novagen), 20 μl of Benzonase (Novagen), and 2 ml of 40 mg/ml lysozyme were added, and the obtained mixture was then shaken at 30° C. for 30 minutes to disintegrate the cells. Thereafter, the reaction solution was centrifuged to obtain the cell-free extract. The obtained, approximately 20 ml of cell-free extract was dialyzed against 1 L of Buffer R (20 mM KPB pH 7.4, 20% glycerol) two times, and the deposited precipitate was then removed by centrifugation. The cell-free extract obtained as a supernatant herein was used in the subsequent experiments.
0.5 ml of the cell-free extract prepared in (3) above was mixed with 0.5 ml of 50 mM buffer having various pH values, pH was then measured, and the mixture was then conserved at 6° C. for 140 hours. […] Using the prepared cell-free extracts having various pH values, conversion of 4-cholesten-3-one was carried out. The reaction was carried out, immediately after the enzyme protein solution was mixed with buffers having various pH values and after the mixed solution was conserved for 140 hours, so as to examine the stability. The reaction solution was prepared, such that 1 ml of the buffer comprised an enzyme protein solution of CYP204A1 or CYPSS having various pH values, 64 μg/ml spinach-derived ferredoxin, 0.1 U/ml spinach-derived ferredoxin reductase protein, 3 U/ml glucose dehydrogenase, 60 mM glucose, 50 μg/ml 4-cholesten-3-one, 2 mM NADH, and 2 mM NADPH. To the reaction solution, 562 μl of 200 mM Tris-HCl was added, so as to adjust the reaction solution to pH 7.5. It was confirmed that the reaction solution maintained pH 7.5, even though enzyme protein solutions having various pH values were added thereto. The reaction was initiated by addition of NADH and NADPH, and it was carried out at 200 rpm at 15° C. for 4 hours. Thereafter, 1.5 ml of ethyl acetate was added to the reaction solution to terminate the reaction, and extraction was carried out. Then, extraction was carried out again with 0.75 ml of ethyl acetate. The obtained ethyl acetate phase was solidified using an evaporator, and the residue was then dissolved in 200 μl of methanol. Thereafter, progesterone was detected by HPLC analysis.

[2] = Thermostability test of cell-free extract; settings: for Relative activity: 140 hr versus 0 hr
Description: as §1
The cell-free extract prepared in (3) above was conserved at various temperature for 140 hours. The conservation temperature was set at 6° C., 10° C., 20° C., 30° C., 37° C., or 45° C. Using the enzyme protein solution before conservation and the sample obtained after conservation for 140 hours, conversion of 4-cholesten-3-one was carried out, and stability was examined. The reaction solution was prepared, such that 1 ml of the buffer comprised an enzyme protein solution of CYP204A1 or CYPSS that had been conserved at each temperature, 64 μg/ml spinach-derived ferredoxin, 0.1 U/ml spinach-derived ferredoxin reductase protein, 3 U/ml glucose dehydrogenase, 60 mM glucose, 50 μg/ml 4-cholesten-3-one, 2 mM NADH, and 2 mM NADPH. The reaction was initiated by addition of NADH and NADPH, and it was carried out at 200 rpm at 15° C. for 4 hours. Thereafter, 1.5 ml of ethyl acetate was added to the reaction solution to terminate the reaction, and extraction was carried out. Then, extraction was carried out again with 0.75 ml of ethyl acetate. The obtained ethyl acetate phase was solidified using an evaporator, and the residue was then dissolved in 200 μl of methanol. Thereafter, progesterone was detected by HPLC analysis. […] In particular, when the cell-free extract was conversed at 20° C. for 140 hours, CYP204A1 maintained 47% of its activity and CYPSS maintained 39% of its activity.

[3] = Kinetics analysis of CYP204A1 and CYPSS; settings: 4-cholesten-3-one 100 μg/ml (so in the source)
[4] = Analysis of the optimum temperature, conversion of 4-cholesten-3-one by cell-free extract; settings: Tris-HCl pH 7.5, 4 hours, 4-cholesten-3-one to progesterone
Description: as §1
Using the cell-free extract prepared in (3) above, conversion of 4-cholesten-3-one was carried out at […]. The reaction solution was prepared, such that 1 ml of the buffer comprised 215 pmol/ml CYP204A1 or 391 pmol/ml CYPSS, 64 μg/ml spinach-derived ferredoxin, 0.1 U/ml spinach-derived ferredoxin reductase protein, 3 U/ml glucose dehydrogenase, 60 mM glucose, 50 μg/ml 4-cholesten-3-one, 2 mM NADH, and 2 mM NADPH. Tris-HCl was added to the reaction solution so as to adjust it to pH 7.5. The reaction was initiated by addition of NADH and NADPH, and it was carried out at 200 rpm for 4 hours, under temperature conditions of 10° C., 15° C., 20° C., 25° C., or 30° C. Thereafter, 1.5 ml of ethyl acetate was added to the reaction solution to terminate the reaction, and extraction was carried out. Then, extraction was carried out again with 0.75 ml of ethyl acetate. The obtained ethyl acetate phase was solidified using evaporator, and the residue was then dissolved in 200 μl of methanol. Thereafter, progesterone was detected by HPLC analysis. The enzyme protein activity for conversion of 4-cholesten-3-one to progesterone under various temperature conditions is shown in Table 1.

enzyme protein activity in comparison with that at 10 μM 4-cholesten-3-one [3]: 67%
B1: CYP204A1: P450scc from Novosphingobium aromaticivorans ATCC 700278, amino acid sequence SEQ ID NO: 23 (protein)
chain: MARAATAAGNGLPLLDGGVPLLGHLAQFFRDPVSVLKRGYRSKGRLFAMNFMGQRMNVMLGPEHNRFFFEETDKLLSIRESMPFFLKMFSPEFYSFAEMDEYLRQRSIIMPRFKAASMKQYVPVMVEESLNLVERLGEEGEFDLIPTLGPVVMDIAAHSFMGREFHEKLGHEFFELFRDFSGGMEFVLPLWLPTPKMVKSQRAKRKLHAILQSWIDKRRAAPLDPPDFFQTMIETKYPDGRPVPDEIIRHLILLLVWAGHETTAGQVSWALADLLQNPDYQKVLRGEISSLLGGSDGRDLGWEQAVAMEKMDLALRETERLHPVAYMLSRKARADIERDGYVIRKGEFVLLAPSVSHRMEETFRNPDAYDPERFNPANPDAQIESNSLIGFGGGVHRCAGVNFARMEMKVLVAILLQNFDMELMDEVRPIAGASTYWPAQPCRVRYRRRKLDGSEAGADMAALARAAGCPAHT
modifications: Novosphingobium aromaticivorans
Relative activity ([1]; AcB pH 6.0): 24% | Activity 140 hr ([1]; AcB pH 6.0, conserved at 6° C. for 140 hours): 0.5 µg/mL | Activity 0 hr ([1]; AcB pH 6.0): 2.1 µg/mL | Relative activity ([1]; KPB pH 6.7): 53% | Activity 140 hr ([1]; KPB pH 6.7, conserved at 6° C. for 140 hours): 1 µg/mL | Activity 0 hr ([1]; KPB pH 6.7): 1.9 µg/mL | Relative activity ([1]; KPB pH 7.2): 65% | Activity 140 hr ([1]; KPB pH 7.2, conserved at 6° C. for 140 hours): 1.3 µg/mL | Activity 0 hr ([1]; KPB pH 7.2): 2 µg/mL | Relative activity ([1]; KPB pH 7.6): 70% | Activity 140 hr ([1]; KPB pH 7.6, conserved at 6° C. for 140 hours): 1.4 µg/mL | Activity 0 hr ([1]; KPB pH 7.6): 2 µg/mL | pH at which most stable ([1]; KPB, conserved at 6° C. for 140 hours): 7.6 | Relative activity ([1]; TES pH 7.5): 68% | Activity 140 hr ([1]; TES pH 7.5, conserved at 6° C. for 140 hours): 1.5 µg/mL | Activity 0 hr ([1]; TES pH 7.5): 2.2 µg/mL | Relative activity ([1]; Tris pH 7.4): 62% | Activity 140 hr ([1]; Tris pH 7.4, conserved at 6° C. for 140 hours): 1.3 µg/mL | Activity 0 hr ([1]; Tris pH 7.4): 2.1 µg/mL | Relative activity ([1]; Tris pH 8.1): 50% | Activity 140 hr ([1]; Tris pH 8.1, conserved at 6° C. for 140 hours): 1 µg/mL | Activity 0 hr ([1]; Tris pH 8.1): 2 µg/mL | Relative activity ([1]; Tris pH 8.9): 35% | Activity 140 hr ([1]; Tris pH 8.9, conserved at 6° C. for 140 hours): 0.7 µg/mL | Activity 0 hr ([1]; Tris pH 8.9): 2 µg/mL | Activity 140 hr ([2]; conserved at 6° C. for 140 hours): 4.5 µg/mL | Relative activity ([2]; conserved at 6° C.): 85% | Activity 140 hr ([2]; conserved at 10° C. for 140 hours): 3.9 µg/mL | Relative activity ([2]; conserved at 10° C.): 74% | Activity 140 hr ([2]; conserved at 20° C. for 140 hours): 2.5 µg/mL | Activity 140 hr ([2]; conserved at 30° C. for 140 hours): 0.5 µg/mL | Relative activity ([2]; conserved at 30° C.): 9% | Activity 140 hr ([2]; conserved at 37° C. for 140 hours): 0 µg/mL | Relative activity ([2]; conserved at 37° C.): 0% | Activity 140 hr ([2]; conserved at 45° C. for 140 hours): 0 µg/mL | Relative activity ([2]; conserved at 45° C.): 0% | Activity 0 hr ([2]; enzyme protein solution before conservation, reaction 15° C., 4 hours): 5.3 µg/mL | Specific activity ([4]; 10° C.): 507 g/h/mol | Specific activity ([4]; 15° C.): 698 g/h/mol | Specific activity ([4]; 20° C.): 719 g/h/mol | Specific activity ([4]; 25° C.): 550 g/h/mol | Specific activity ([4]; 30° C.): 285 g/h/mol
